# Reference: the nanobody polyreactivity screen of Harvey et al. (2022)
# Assay: yeast display, Sf9 membrane polyspecificity reagent, FACS + sequencing; frameworks hold sequencing errors
# In short: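 Nanobodies came from a synthetic yeast display library in Saccharomyces cerevisiae BJ5465, induced with galactose for 36–48 hours and stained for 1 hour at 4 °C with 10% biotinylated, detergent-solubilized Sf9 membrane reagent. Cells were enriched on streptavidin microbeads and then FACS-sorted, with low and high (top ~1%) gates set on anti-HA fluorescence for expression and streptavidin fluorescence for reagent binding. Each polyreactivity label reflects the gate a clone came from. Genes were amplified by colony PCR, sequenced by MiSeq 2 × 250 and filtered by CDR length.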
sequence,measurement,value
QVQLVESGGGLVQAGGSLRLICAASGSIFFVYDMGWYRQAPGKERELVAAITWSGGRTTYADSVKGRFTISRDNAKNTVYLQMNSMKPEDTAVYYCAKAWPDHWYSRYDYWGQGTQVTVSS,polyreactivity (PSR sort gate),low polyreactivity
QVQLVESGGGLVQAGGSLRLSCAASGRTFDDNAMGWYRPAPGKARELVAAISTTGSTNYADSVKGRFTISRDNAQTTVYLQMNSLKPEDTAFYYCAADSTPYVRSGNYDYWGQGTQVTVSS,polyreactivity (PSR sort gate),low polyreactivity
QVQLVESGGGLVQAGGSLRLSCAASGRTFPYYAMGWSRQAPGKERELVAGITSNAGSTYYADSVKGRFTISRDNAKNTVYLQMNSLKPEDTAVYYCAKTKAGRWTTFKFGYWGQGTQVTVSS,polyreactivity (PSR sort gate),high polyreactivity
QVQLVESGGGLVQAGGSLRLSCAASGLIDSYYAMGWYRQAPGKERELVAVITSGGSTYYADSVKGRFTISRDNAKNTVYLQMNSLNPEDTAVYYCAARVRVSYNRYHGLYAVSRGDYWGQGTQVTVSS,polyreactivity (PSR sort gate),high polyreactivity
QVQLVESGGGLVQAGGSLRLSCAASGSIFGSYAMGWYRQAPGKERELVAAISYSGGTTYYADSVKGRFTISRDNAKNTVYLQMNSLKPEDTAVYYCNAPVAYQREYDYWGLGTQVTVSS,polyreactivity (PSR sort gate),low polyreactivity
QVQLVESGGGLVHAGGSLSLSCAASGFILGVYAMGWYRQEPGKERELVAAITFTGASTYYADSVKGRFTLSRDNAKNTVYLQMNSLKPEDTAVNYCNKSSAYYRYEYWGQGTQVTVSS,polyreactivity (PSR sort gate),low polyreactivity
QVQLVESGGGLVQAGGSLRLSCAASGRIFNAYAMGWYRQAPGKERELVAAISRSGGRTYYADSVKGRFTISRDNAKNNVYLQMNILKPEDTAVYYCAKDFFEHSPVSHTYSSSKYDYWGQGTQVTVSS,polyreactivity (PSR sort gate),low polyreactivity
QVQLVESGGGLVQAGGSLRLSCAASGRIFWYYAMGWYRQAPGKERELVARITSGGRTYYADSVKGRFTISRDNAKNTVYLQMNSLKPEDTAVYYCARRGRKAYGYWGQGTQVTVSS,polyreactivity (PSR sort gate),high polyreactivity
QVQLVESGGGLVQEGGSLRLICAASGSILGSNAMGWYRQAPGKEREFVAAITWTGGSTYYADSVKGRFTISRDNAKNTVYLQMNSLKREDTAVYYCAKDVKYVKMDYWGQGTQVTVSS,polyreactivity (PSR sort gate),low polyreactivity
QVQLVESGGGLVQAGGSLRLSCAASGSTFGTYAMGWYRQEPGKERELVAAINRDGGRTYYADSVKGRFTISRDNAKNTVYLQMNSLKPEDTAVYYCAAEGLDEGDYWGQGTQVTVSS,polyreactivity (PSR sort gate),low polyreactivity
QVQLVESGGGLVQAGGSLRLSCAASGRIFQYYAMGWYRQEPGKERELVAAISGSGGRTYYADSVKGRFTISRDNAKNTVYLQMNSLKPEDTAVYYCNAVYRYYPFDYWGQGTQVTVSS,polyreactivity (PSR sort gate),high polyreactivity
QVQLVESGGGLVQAGGSLRLSCAATRSTSSKYAMGWYRQAPGKERELVAAITRSGGRTYYAVSVMGRFTISRDYAKNTVYLQMNSLKPEDTAVYYCAAAGVYWEFDYWGQGTQVTVSS,polyreactivity (PSR sort gate),high polyreactivity
QVQLVESGGGLVQAGGSLRLSCAASGSTYHYAMGWYRQAPGKERELVASITWRGDTTYYADSVKGRFTISRDNAKNTVYLQMNSLKPEDTAVYYGATVPYSPPSAGPEYDYWGQGTQVTVSS,polyreactivity (PSR sort gate),high polyreactivity
QVQLVESGGGLVQAGGSLRLSCAASGSIFDLYVMGWYRQAPGKERELVAAISLIGGSTSYADSVKGRFTISRDNEKNTVYLHRKSLKPEDTAVYYCAVEKFFRAEYDHWGLGTQVTVSS,polyreactivity (PSR sort gate),low polyreactivity
QVQLVESGGGLVQAGGSLRLSCAASGSIFGVNAMGWYRQAPGKERELVATIRQRGTSTYNADSVKGRFTISRDTAKNTVYLQMNSLKPEDTAVYYCAARGGVLKGYYYWGQGTQVTVSS,polyreactivity (PSR sort gate),high polyreactivity
QVQLVESGGGLVQAGGSLRLSCAASGGIFYPNVKGWYRQAPGKEREFVAAISSSSGSTYADSVKGRFTISRDNAKNTVYLQMNSLKPDDTAVFYCAAEENWWGIWVRYDYWVQGTQVTVSS,polyreactivity (PSR sort gate),low polyreactivity
QVQLVESGGGLVQAGGSLRLSCAASGFTFGSYAMGWYRQAPGKDRELVARISSDGSTNYADSVKGRFTISRDYAKNTVYLQMNSLKPEDTAVYYCAVRHRYTRAYWGRDYWGQGTQVTVSS,polyreactivity (PSR sort gate),low polyreactivity
QVQLVESGGGLVQAGGSLRLSCAASGRKFNGYDMGWYRQAPGKERELVAPINNSGGTDNTYYADSVKGRFTISRDNAKNTVYLQMNSLKPEDTAVYYCNAGPVWDQWWLYYYWGQGTQVTVSS,polyreactivity (PSR sort gate),high polyreactivity
QVQLVESGGGLVQAGGILRLSCAASGFTLADNTMVWYRQSPGKERELVADITSGASTYYADSVKGRFTISRDNAKNTVYLQMNSLKPEDTAVYYCAALYYWRSGYDYWGQGTQVTVSS,polyreactivity (PSR sort gate),low polyreactivity
QVQLVESGGGLVQPGGSLRLSCAASGRTFYEYAMGWYRPAPGKERELVAGITSGGSTNYADSVKGRFTISRDNAKNTVYLQMNSLKPEDTAVYYCAASYWGYEYDYWGQGTQVTVSS,polyreactivity (PSR sort gate),low polyreactivity
QVQIVESGGGLVQAGGSLRLSCAASGSTFGGYVMGWYRQAPGKERELVAAIRWRTDSTYYADSVKGRFTISRDNAKNTVYLQMNSLKPEDTAVYYCAAPRGTRVGSHLYYWGQGTQVTVSS,polyreactivity (PSR sort gate),high polyreactivity
QVQLVESGRGLVQAGGSLRLSCAASGRIFDRNAMGWYRDAPGKERELVAAIDDSVGDTSYADSVKGRFTISRDNAKNTVYLQMNSLKPEDTSVFYCNAGYADFVTYPRYYYWGQGTQVTVSS,polyreactivity (PSR sort gate),low polyreactivity
QVQLVESGGGLVQAGGSLRLSCAASGFIFGRYAMGWYRQAPGKERELVAAISRSGGSTHYADSVKGRFTISRDNAKNTVYLQMISLKPEDTAVYYCAAVWPFDRSRMDYWGQGTQVTVSS,polyreactivity (PSR sort gate),high polyreactivity
QVQLVESGGGLVQAGGSLRLSCAASGFTFQYYAMGWYRQAPGKERELVAAITWSGTSTYYADSVKGRFTISRDNAKNTVYLQMNSLKPEDTAVYYCNKYSPYITYDYDYWGQGTQVTVSS,polyreactivity (PSR sort gate),high polyreactivity
QVQLVESGGGLVQAGGSLRLSCAASGSTFAYNDMGWYRLAPGKERELVADIRSGGNTNYADSVKGRFTISRDNAKNTVYLQMNSLKPEDTAVYYCATDGYRIDVYHPDYRYDYWGQGTQVTVSS,polyreactivity (PSR sort gate),low polyreactivity
QVQLVESGGGLVQAGGSLRLSCAASASTLYYNAMAWYIQAPGKERELVAAITSGGSTSYADSVKGRFTISRDNAKNTVYLQMNSLKPEDTAVYYCAAVFYRRFDYWGQGTQVTVSS,polyreactivity (PSR sort gate),low polyreactivity
QVQLVESGGGLVQAGGSLRLSCAASGLTFYFYAMGWYRQAPGKERELVAAINSGGSTNYADSVKGRFTISRDNAKNTVYLQMNSLKPEDTAVYYCNADYYFTSYEYEYWGQGTQVTVSS,polyreactivity (PSR sort gate),low polyreactivity
QVQLVESGGGLVQAGGSLRLSCAASGRIFGFYTMGWYRQAPGKERELVAGISRGGSTYYADSVKGRFTISRDNAKNTGYVQMNSLNPEDTAVYDCAADLGWGYEYWGQGTQVTVSS,polyreactivity (PSR sort gate),low polyreactivity
QVQLVESGGGLVQARGSLRLSCSSSGSIFASYAMGWYRRAPGKERELVAAISRRAVLTYYADSVKGSFTISRDNAKNTVYLQMNSLKPEDTAVYYCNARGYSGYQRYGYNYWGQGTQVTVSS,polyreactivity (PSR sort gate),high polyreactivity
QVQLVESGGGLVQAGGSLRLSCAASGSIFKYNDMGWYRQAPGKERELVAAITSDSSTYYADSVKGRFTISRDNAKNTVYLQMNSLKPVDTAVYYCAADTTGFTTYAYWYDYWGQGTQVTVSS,polyreactivity (PSR sort gate),low polyreactivity
QDQLVESVGGLVQAGGSLRLSCAASGLTFEVYAMGWSRQAPGKDRELVAAISSGGRSTYYADSVKGRFTISRDNAKNTVYLQMNSRKPEDSAVYYCNAVAKLYYWRYDYWGQGTQVTVSS,polyreactivity (PSR sort gate),low polyreactivity
QVQLVESGGGLVQAGGSLRLSCAASGSIFNRYAMGWYRPAPGKERELVAAISRSGGRTYYADSVKGRFTISRDNAKNTVYLQMNSLKPEDTAVYYCAADKYYRQHEFDYWGQGTQVTVSS,polyreactivity (PSR sort gate),high polyreactivity
QVHLVESGGGLVQAGGSLRLSCAASGRIFYAYAMGWYRPAPVKERELVAAITWSGGSTYYADSVKGRFTISRDNAKNTVYLQMNSLKPEDTAVYYCAADLRVKYVHTYSYVWYRYDYWGQGTQVTVSS,polyreactivity (PSR sort gate),high polyreactivity
QVQLVESGGGLVQARRSLRLSCAASGSTFVQYAMGWDRQAPGNERELVASISYSTGSSTYYADSVKGRFTISRDNAKTTVYLQMNSLKPEDTAFYECAAGIPKGGWSRPRYYYWGQGTQVTVSS,polyreactivity (PSR sort gate),high polyreactivity
QVQIVESGGGLVQAGGSLRLTCAASGYIFKYYAMGWYRQAPGKERELVAAITIGGNTNYADSVKGRFTISRDNAKNTVYLQMNSLKPEDTAVYYCATGGYYSAIVYGGYDYWGQGTQVTVSS,polyreactivity (PSR sort gate),low polyreactivity
QVQLVESGGGLVQAGGSLRLSCDASGITITEYARGWYRQAPGTERELVAVISSVGTMYYADSVKGRFTISRDNEKNTVYLQMKSLKPEDTAVYYCAADYTDDGEYPYWSGSDYWGQGTQVTVSS,polyreactivity (PSR sort gate),low polyreactivity
QVQLVESGGGLVQAGGSLRLSCAASGSIFSGWYTMGWYRQAPGKERELVASISISTTDTYYADSVKGRFTISRDNAKNTVYLQMNSLKPEDTAVYYCADEVTSFSFGGDATEYYWGQGTQVTVSS,polyreactivity (PSR sort gate),low polyreactivity
QVQLVESVGGLVQAGGSLRLSCAASGSTFGYYTMGSYRQAPGKEKELVAAITWSGGSTYYADSVKGRITISRDNAKYTVYLQINSLKPEDTAVYYCADDDYWTPFGYLGQGTQVTVSS,polyreactivity (PSR sort gate),low polyreactivity
QVQLVESGGRLVQAGGSLRLSCAASGFTFNYNAMGWYRQAPGKERELVAAISRSGGSTYYADSVMGRFTISRDNAKNTFYLQMNSLKPEDTAVYYFAAVRDIGKYGYWGQGTQVTVSS,polyreactivity (PSR sort gate),high polyreactivity
QVQLVESGGGLVQAGGSLRLSSAASGRIFDTNAMGGYRQAPGKERELVAAISKSGGSTYYADSVKGRFTISRDNAKNTVYLQMNSLKPEDTAVYFCAAKYTSGRVLFEHGYWGQGSQVTVSS,polyreactivity (PSR sort gate),low polyreactivity
QVQLVESGGGLVQAGGSLRLSCAASGFIFTTYAMGWYRQEPGTERELVAAISGRGGTTYYADSVKGRFTISRDNAKNTVYLQMNSMKPEDTAVYYCAADGYPGDDYWGQGTQVTVSS,polyreactivity (PSR sort gate),high polyreactivity
QVQLVESGGGLVQAGGSLRLSCAASGSIFTPYAMGWYRQAPGKERELVAVISWRVDSTYYADSVKGRFTISRDNAKNTVYLQMNSLKPEDTAVYYCAAKSYLLAPFGSGNRWSRYDYWGQGTQVTVSS,polyreactivity (PSR sort gate),high polyreactivity
QVQLVDSGGGLVQAGGSLRLSSAASGFTLLYNAMGSYRQAPGKERELVSTITGGGTTYADSVKGRFTISRDNAKNTVYLQMNSLKPEDTAVYYCATSRVWRLYRYLPQYRGYYYWGQGTQVTVSS,polyreactivity (PSR sort gate),high polyreactivity
